Reference: US20240166738A1 (priority 2021, published 2024)

Target: GST-TMEM106B (truncated, comprising amino acids 122-210 of SEQ ID NO:1) (Homo sapiens, UniProt Q9NUM4)
Assay: Pre-mix epitope binning of anti-TMEM106B antibodies (Carterra / Lake Pharma)
Type: binding
Design: key to epitope bin: Bin 1: competes for binding to the same or overlapping TMEM106B region as the TM1, TM17, TM22, TM26, TM79, and/or TM82 antibodies; Bin 2: competes for binding to the same or overlapping TMEM106B region as the TM3, TM9, TM10, TM11, TM12, TM13, TM18, TM19, TM21, TM24, TM25, TM32, TM35, TM37, TM42, TM45, TM48, TM54, TM59, TM60, TM61, and/or TM76 antibodies; Bin 3: competes for binding to the same or overlapping TMEM106B region as the TM7, TM15, TM83, and/or TM84 antibodies; Bin 4: competes for binding to the same or overlapping TMEM106B region as the TMS, TM28, TM29, TM30, TM63, TM64, TM72, TM78, TM80, TM86, and/or TM88 antibodies; Bin 5: does not bind to a truncated TMEM106B comprising amino acids 122-210 of SEQ ID NO:1
Settings: for epitope bin: competition for binding to truncated GST-TMEM106B (amino acids 122-210); for Binding Community/Bin: epitope bin number, pre-mix binning on truncated GST-TMEM106B
Protocol: (§1) Monoclonal anti-TMEM106B antibodies were immobilized to a CMD 50M chip (Xantec # SPMXCMD5OM lot# SCCMD50M0416). The running buffer was HBS-EP+ with 1 mg/mL BSA. The GST-TMEM106B (truncated, comprising amino acids 122-210 of SEQ ID NO:1) antigen was prepared at a final concentration of 55 nM (corresponding to 2 μg/mL) and mixed with the competing analyte anti-TMEM106B antibodies at a final concentration of 333 nM (corresponding to 50 μg/mL) or compared to a buffer control. Samples were injected for 5 minutes over the array and regenerated after every cycle with 1 minute of two parts Pierce IgG-Elution buffer (ThermoFisher Cat#21004) and 1 part of 10 mM Glycine, pH 2.0 (Carterra).
Anti-TMEM106B antibodies sorted into various competing bins and resulting binning profiles. […] Antibodies within Bin 3 or Bin 4 partially block Bin 2 antibodies.
as §1, with “SPMXCMD50M” for “SPMXCMD5OM”, “lmg/ml” for “1 mg/mL”, “(truncated)” for “(truncated, comprising amino acids 122-210 of SEQ ID NO:1)”, “μg/ml)” for “μg/mL)”

Chain of GST-TMEM106B (truncated, comprising amino acids 122-210 of SEQ ID NO:1) (Q9NUM4 122-210): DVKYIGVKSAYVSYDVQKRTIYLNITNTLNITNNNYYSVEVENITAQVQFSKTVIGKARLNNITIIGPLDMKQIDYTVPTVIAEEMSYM

Molecule	epitope bin	Binding Community/Bin
TM-10: anti-TMEM106B monoclonal antibody; CDR-H1-3 SEQ ID NO: 11, 44, 87; CDR-L1-3 SEQ ID NO: 128, 169, 192 (antibody, V domains shown) VH: QVQLQQSGAELVKPGASVKISCKGSGYAFSSYWMNWVKQRPGKGLEWIGQIYPGDGDTNYNGKFKGKATLTADKSSTTAYIHLSSLTSEDSAVYFCARWGHYDEAMDDWGQGTSVTVSS VL: DVVMTQTPLSLPVSLGDQASISCRSSQSLVHSNGKTYLHWYVQKPGQSPKLLIYKISNRFSGVPDRFSGSGSGTDFTLKISRVEAEDLGVYFCSQITHVPWTFGGGTKLESK	Bin 2	2
TM-76: anti-TMEM106B monoclonal antibody; VH SEQ ID NO: 481, VL SEQ ID NO: 516 (antibody, V domains shown, Variable Heavy Chain -- TM-76; Variable Light Chain -- TM-76) VH: QVTLKESGPGILQPSQTLSLTCSFSGFSLSTSGMGVSWIRKPSGKGLEWLAHIFWDDDKRYNLFLKSRLTVSKDTSSNQVFLMITSVDTTDTATYYCARMGRQRDYFDYWGQGTSLTVSS VL: QIILTQSPAIMSASLGEEITLTCSASLSISYVHWYQQKSGASPKLLIYGTSNLASGVPSRFSGSGSGTFYSLTISSVEAEDAADYYCHQWSIYRTFGGGTKLEMK	Bin 2	2
TM-60: anti-TMEM106B monoclonal antibody; VH SEQ ID NO: 413, VL SEQ ID NO: 502 (antibody, V domains shown, Variable Heavy Chain -- TM-48, TM-60; Variable Light Chain -- TM-60) VH: QVQLQQSGPELVKPGASVKLSCKASGYTFTSYDINWVKQRPGQGLEWIGWIYPRDGNTQYIEKLKGKATLTVDTSSSTAYMELHSLTSEDSAVYFCARWIFYAMDYWGQGTSVTVSS VL: DVLMTQTPLSLPVSLGDQASISCRSSQSIVHGNGNTYLEWYLQKPGQSPKLLIYKVSNRFSGVPDRFSGSGSGTDFTLKISRVEAEDLGVYYCFQGSHLPYTFGGGTKLEIK	Bin 2	2
TM-19: anti-TMEM106B monoclonal antibody; CDR-H1-3 SEQ ID NO: 13, 53, 96; CDR-L1-3 SEQ ID NO: 136, 175, 200 (antibody, V domains shown) VH: DVQLQQSGAELVRPGASVKLSCTASGFNIKDYYMYWVKQRPEQGLEWIGRIDPEDGDTENAPKFRGMATMTADTSSNTAYLQLNSLTSEDTAVYYCTTRIGNLYHVMDYWGHGTSVTVSS VL: DVLMTQTPLSLPVSLGDQASISCRSSQSIVHSNGNTYLEWYLQKPGQAPKLLIDKVFNRFSGVPDRFSGSGSGTDFTLKISRVEAEDLGVYYCFQGSHVPFTFGSGTKLEIK	Bin 2	2
TM-12: anti-TMEM106B monoclonal antibody; CDR-H1-3 SEQ ID NO: 13, 46, 89; CDR-L1-3 SEQ ID NO: 130, 169, 194 (antibody, V domains shown) VH: EVQLQQSGAELMRPGASVKLSCTASGFNIQDYYMYWVKQRPEQGLEWIGRIDPEDGDAEYAPKFQGKATMTADTSSNTAYLQLSSLTSEDTAVYYCSTRVIYDGYYRTMDCWGQGTSVTVSS VL: DVLMTQIPLSLPVSLGDQASISCRSSQTIVHSNGNTYLEWYLKKPGQSPKLLIDKISNRFSGVPDRFSGSGSGTDFTLKISRVEAEDLGVYYCFQGSHVPYTFGGGTKLEIK	Bin 2	2
TM-13: anti-TMEM106B monoclonal antibody; CDR-H1-3 SEQ ID NO: 14, 47, 90; CDR-L1-3 SEQ ID NO: 131, 171, 195 (antibody, V domains shown) VH: QVQLQQSGAELVKPGASVKMSCKASGYTFTTFPIEWMKQSHGKGLEWIGNFHPYNDDTKYNEKFKGKATLTVDKSSSTVYLDLSRLTSDDSAVYYCARYFYGGMDYWGQGTSVTVSS VL: DIQMTQSPASLSVSVGETVTITCRASENIYSSLGWYQQKQGESPQLLVFAATNLADGVPSRFSGSGSGTQYSLKINSLQSEDFGTYYCQHLWSIPWTFGGGTRLEIK	Bin 2	2
TM-18: anti-TMEM106B monoclonal antibody; CDR-H1-3 SEQ ID NO: 5, 52, 95; CDR-L1-3 SEQ ID NO: 135, 174, 199 (antibody, V domains shown) VH: EVRLQQSGPELVKPGASVKISCKTSGYTFTDYYMNWVKQSHGKSLEWIVNINPNNGDAFYNQKFKGKATLTVDKSSNTAYLDLRSLTSEDSAVYYCAREGQLRLRRVYAMDYWGQGTSVTVSS VL: DIVLAQSPASLAVSLGQRATISCRASKSVSISVYTYVHWYQQKPGQPPKLLIYLASNLESGVPARFSGSGSGTDFTLNIHPVEEEDAATYYCQHSRELPYTFGGGTKLEIK	Bin 2	2
TM-61: anti-TMEM106B monoclonal antibody; VH SEQ ID NO: 467, VL SEQ ID NO: 503 (antibody, V domains shown, Variable Heavy Chain -- TM-61; Variable Light Chain -- TM-61) VH: QVQLQQSGAELAKPGASVKLSCKASGYTFTNYWMNWVKQRPGQGLEWIGYINPSSDYTKYNQNFKDKATLTADKSSSTAYMQLNSLTYEDSAVYYCTRWGGSRSYWYFDVWGAGTTVTVSS VL: DIVMTQSPSSLSASAGEKVTMSCKSSQSLLNSGNQKNYLAWYQQKPGQSPKLLIYGASTRESGVPDRFTGSGSGTDFTLTISSVQAEDLAVYYCQNDSNYPFTFGGGTKLEMK	Bin 2	2
TM-7: anti-TMEM106B monoclonal antibody; CDR-H1-3 SEQ ID NO: 8, 41, 84; CDR-L1-3 SEQ ID NO: 126, 166, 190 (antibody, V domains shown) VH: EVQLQQSGPVLVKPGPPVKISCKASGFTFTDYYIHWVKLSHGKSLEWIGLVYPYNGDTDYNQKFKGKATLTVDTSSSTAYMELNSLTSEDSAVYYCARTYYANSPDYWGQGTTVTVSS VL: DIVMTQSPSSLSVSAGEKVTMSCKSSQSLLNSGNQRNYLAWYQQKPGQPPKLLIYGASTRESGVPDRFTGSGSGTDFTLTISNVQAEDLAVYYCQNDHSYPLTFGAGTKLELK	Bin 3	3
TM-9: anti-TMEM106B monoclonal antibody; CDR-H1-3 SEQ ID NO: 10, 43, 86; CDR-L1-3 SEQ ID NO: 122, 168, 186 (antibody, V domains shown) VH: EVQLVESGGDLVKPGGSLKLSCVASGFTFSGYGMSWVRQTPDKRLEWVATISSGSFYIYYPDSVKGRLTVSRDNAKNTLYLQMSSLKSEDTAIYYCARQNFYYGCEDYWGQGTTLTVSS VL: DIVMTQAAFSNPVTLGTSASISCRSSKSLLHSNGITYLYWYLQKPGQSPQLLIYQMSNLASGVPNRFSSSGSGTDFTLRISRVEAEDVGVYYCAQNLELPWTFGGGTKLEIK	Bin 2	2
TM-21: anti-TMEM106B monoclonal antibody; CDR-H1-3 SEQ ID NO: 18, 54, 97; CDR-L1-3 SEQ ID NO: 137, 168, 201 (antibody, V domains shown) VH: EVQLVESGGGLVKPGGSLKLSCAASGFTFSNYAMSWVRETPEKRLEWVAFISDGGGYIYYADNVKDRFTISRDNAKNNLYLQMRHLKSEDTAMYYCARDGGTGFTYWGQGTLVTVSV VL: DIVMTQAAFSNPVTLGTSASISCRSSKSLLHSNGITYLFWYLQKPGQSPQLLIYQMSNLASGVPDRFSSSGSGTDFTLRISRVEAEDVGVYYCVQNLELPYTFGGGTKLEIK	Bin 2	2
TM-11: anti-TMEM106B monoclonal antibody; CDR-H1-3 SEQ ID NO: 12, 45, 88; CDR-L1-3 SEQ ID NO: 129, 170, 193 (antibody, V domains shown) VH: QVQLKQSGPGQVQPSQSLSITCTVSGFSLSDYGVHWVRQSPGKGLEWLGVIWNNGNTDYNAAFISRLSINKDNSKSQVFFKMTSLQADDTAIYYCVRSLRPLHFDYWGQGTTVTVSS VL: DIVMTQSPSSLTMSVGQKVTMHCKSSQSLLNSNNLQNYLAWYQQKPGQSPTLLVYFASIRESGVPDRFIGSGSGTDFTLTISSVQAEDLADYFCQQHYNTPFTFGSGTKLEIR	Bin 2	2
